Article PMC4509486, “Inside-out Ca^2+ signalling prompted by STIM1 conformational switch” (Nature Communications, 2015)

Tests used:
[1] = molecular target: the molecule itself; assay: SEC-MALS; Superdex 200 10/300 GL; 500 μl of 10–100 μM protein; 20 mM Tris-HCl pH 7.3, 150 mM NaCl, 2 mM dithiothreitol, 0.6% N-lauroylsarcosine; 0.3 ml/min
[2] = molecular target: the molecule itself; assay: cross-linking; copper-phenanthroline (1 mM CuSO4/3 mM 1,10-phenanthroline) disulfide cross-linking of purified protein (1 mg/ml) in 20 mM HEPES pH 7.4, 150 mM NaCl, 1 mM TCEP, on ice 15 min; non-reducing SDS-PAGE; efficiency = dimer/(monomer + dimer)
[3] = molecular target: the molecule itself; assay: FRET or BRET; inter-subunit FRET between FITC- and TMR-labelled monocysteine TM-CC1 in PBS pH 7.3, 1% OG, 1 mM TCEP; excitation 475 nm
[4] = molecular target: the molecule itself; assay: SEC + native gel or EMSA; in vitro, with or without Ca^2+; detergents needed to keep the proteins soluble

B1: GB1-TM-CC1 (STIM1 residues 209–310), wild type (domain or fragment, UniProt Q13586 209-310, looked up)
chain: NHLKDFMLVVSIVIGVGGCWFAYIQNRYSKEHMKKMMKDLEGLHRAEQSLHDLQERLHKAQEEHRTVEVEKVHLEKKLRDEINLAKQEAQRLKELREGTENE
notes: STIM1 residues 209-310 (transmembrane domain and CC1); also called STIM1_(209–310); WT; source: E. coli BL21 (DE3), purified (Ni-NTA, gel filtration); not shown: GB1, N-terminal, kept
In the case of B1, the “stoichiometry N” value [1] is reported as 2.

B2: GB1-TM-CC1 monocysteine variant I220C on the C227S background (domain or fragment, UniProt Q13586 209-310, looked up)
chain: NHLKDFMLVVSCVIGVGGSWFAYIQNRYSKEHMKKMMKDLEGLHRAEQSLHDLQERLHKAQEEHRTVEVEKVHLEKKLRDEINLAKQEAQRLKELREGTENE
notes: STIM1 residues 209-310; also called I220C (C227S); source: E. coli BL21 (DE3), purified; not shown: GB1, N-terminal, kept
B2: binds [2].

B3: TM-CC1 monocysteine variant F214C on the C227W background, labelled with FITC or TMR (domain or fragment, UniProt Q13586 209-310, looked up)
chain: NHLKDCMLVVSIVIGVGGWWFAYIQNRYSKEHMKKMMKDLEGLHRAEQSLHDLQERLHKAQEEHRTVEVEKVHLEKKLRDEINLAKQEAQRLKELREGTENE
modifications: FITC-maleimide or TMR-maleimide on the single cysteine (F214C)
notes: STIM1 residues 209-310 (TM-CC1); also called F214C (C227W TM-CC1); source: E. coli BL21 (DE3), purified, dye-labelled
B3: binds [3].

B4: GB1-TM-CC1 monocysteine variant I220C on the C227W background (domain or fragment, UniProt Q13586 209-310, looked up)
chain: NHLKDFMLVVSCVIGVGGWWFAYIQNRYSKEHMKKMMKDLEGLHRAEQSLHDLQERLHKAQEEHRTVEVEKVHLEKKLRDEINLAKQEAQRLKELREGTENE
notes: STIM1 residues 209-310; also called I220C (C227W); source: E. coli BL21 (DE3), purified; not shown: GB1, N-terminal, kept
B4: binds [2].

B5: TM-CC1 monocysteine variant N234C on the C227W background, labelled with FITC or TMR (domain or fragment, UniProt Q13586 209-310, looked up)
chain: NHLKDFMLVVSIVIGVGGWWFAYIQCRYSKEHMKKMMKDLEGLHRAEQSLHDLQERLHKAQEEHRTVEVEKVHLEKKLRDEINLAKQEAQRLKELREGTENE
modifications: FITC-maleimide or TMR-maleimide on the single cysteine (N234C)
notes: STIM1 residues 209-310 (TM-CC1); also called N234C (C227W TM-CC1); source: E. coli BL21 (DE3), purified, dye-labelled
B5: binds [3].

B6: GB1-TM-CC1 monocysteine variant F229C on the C227W background (domain or fragment, UniProt Q13586 209-310, looked up)
chain: NHLKDFMLVVSIVIGVGGWWCAYIQNRYSKEHMKKMMKDLEGLHRAEQSLHDLQERLHKAQEEHRTVEVEKVHLEKKLRDEINLAKQEAQRLKELREGTENE
notes: STIM1 residues 209-310; also called F229C (C227W); source: E. coli BL21 (DE3), purified; not shown: GB1, N-terminal, kept
B6: binds [2].

B7: GB1-TM-CC1 monocysteine variant F229C on the C227S background (domain or fragment, UniProt Q13586 209-310, looked up)
chain: NHLKDFMLVVSIVIGVGGSWCAYIQNRYSKEHMKKMMKDLEGLHRAEQSLHDLQERLHKAQEEHRTVEVEKVHLEKKLRDEINLAKQEAQRLKELREGTENE
notes: STIM1 residues 209-310; also called F229C (C227S); source: E. coli BL21 (DE3), purified; not shown: GB1, N-terminal, kept
B7: binds [2].

B8: GB1-TM-CC1 (STIM1 residues 209–310) C227W (domain or fragment, UniProt Q13586 209-310, looked up)
chain: NHLKDFMLVVSIVIGVGGWWFAYIQNRYSKEHMKKMMKDLEGLHRAEQSLHDLQERLHKAQEEHRTVEVEKVHLEKKLRDEINLAKQEAQRLKELREGTENE
notes: STIM1 residues 209-310; also called TM-CC1-C227W; source: E. coli BL21 (DE3), purified (Ni-NTA, gel filtration); not shown: GB1, N-terminal, kept
For B8, the “stoichiometry N” value [1] was 2.

B9: STIM1 1–342 (characterized in vitro) (domain or fragment, UniProt Q13586 23-342, looked up)
chain: LSHSHSEKATGTSSGANSEESTAAEFCRIDKPLCHSEDEKLSFEAVRNIHKLMDDDANGDVDVEESDEFLREDLNYHDPTVKHSTFHGEDKLISVEDLWKAWKSSEVYNWTVDEVVQWLITYVELPQYEETFRKLQLSGHAMPRLAVTNTTMTGTVLKMTDRSHRQKLQLKALDTVLFGPPLLTRHNHLKDFMLVVSIVIGVGGCWFAYIQNRYSKEHMKKMMKDLEGLHRAEQSLHDLQERLHKAQEEHRTVEVEKVHLEKKLRDEINLAKQEAQRLKELREGTENERSRQKYAEEELEQVREALRKAEKELESHSSWY
notes: signal peptide in the construct; it may be the CFP fusion m18
In the case of B9, the “stoichiometry N” value [4] is reported as 2.
